Data on 22 molecules can be found in patent US20210380657A1 (COUNCIL OF THE QUEENSLAND INSTITUTE OF MEDICAL RESEARCH, published 2021).

The chains are these.
B1: TCR Clone 1 of Donor A4T in Table 3 (TCR, V domains shown)
V domain 1: DQQVKQNSPSLSVQEGRISILNCDYTNSMFDYFLWYKKYPAEGPTFLISISSIKDKNEDGRFTVFLNKSAKHLSLHIVPSQPGDSAVYFCAASGLVEGNTPLVFGKGTRLSVIA
V domain 2: EAGVAQSPRYKIIEKRQSVAFWCNPISGHATLYWYQQILGQGPKLLIQFQNNGVVDDSQLPKDRFSAERLKGVDSTLKIQPAKLEDSAVYLCASSLFPGTGIHEQYFGPGTRLTVTE
notes: also called Donor A4T Clone 1
B2: TCR Clone 1 of Donor R7Z in Table 3 (TCR, V domains shown)
V domain 1: KQEVTQIPAALSVPEGENLVLNCSFTDSAIYNLQWFRQDPGKGLTSLLLIQSSQREQTSGRLNASLDKSSGRSTLYIAASQPGDSATYLCAVWAGGTSYGKLTFGQGTILTVHP
V domain 2: DVKVTQSSRYLVKRTGEKVFLECVQDMDHENMFWYRQDPGLGLRLIYFSYDVKMKEKGDIPEGYSVSREKKERFSLILESASTNQTSMYLCASSPAGRPGKPLHFGNGTRLTVTE
notes: also called Donor R7Z Clone 1
B3: TCR Clone 4 of Donor R7Z in Table 3 (TCR, V domains shown)
V domain 1: AQSVTQLDSHVSVSEGTPVLLRCNYSSSYSPSLFWYVQHPNKGLQLLLKYTSAATLVKGINGFEAEFKKSETSFHLTKPSAHMSDAAEYFCVVSYLGDTGRRALTFGSGTRLQVQP
V domain 2: EPEVTQTPSHQVTQMGQEVILRCVPISNHLYFYWYRQILGQKVEFLVSFYNNEISEKSEIFDDQFSVERPDGSNFTLKIRSTKLEDSAMYFCASSESGSPTGELFFGEGSRLTVLE
notes: also called Donor R7Z Clone 4
B4: TCR Clone 5 of Donor R7Z in Table 3 (TCR, V domains shown)
V domain 1: GIQVEQSPPDLILQEGANSTLRCNFSDSVNNLQWFHQNPWGQLINLFYIPSGTKQNGRLSATTVATERYSLLYISSSQTTDSGVYFCAVVGNNDMRFGAGTRLTVKP
V domain 2: DSGVTQTPKHLITATGQRVTLRCSPRSGDLSVYWYQQSLDQGLQFLIQYYNGEERAKGNILERFSAQQFPDLHSELNLSSLELGDSALYFCASSVAPWYEQYFGPGTRLTVTE
notes: also called Donor R7Z Clone 5
B5: TCR Clone 1 of Donor B5F in Table 3 (TCR, V domains shown)
V domain 1: B4 V domain 1 with V90L, G91N
V domain 2: B4 V domain 2 with A96S, P97S, Y102F, T112L
notes: also called Donor B5F Clone 1
B6: TCR Clone 2 of Donor R7Z in Table 3 (TCR, V domains shown)
V domain 1: B4 V domain 1 with G91I
V domain 2: B4 V domain 2 with W98F
notes: also called Donor R7Z Clone 2
B7: TCR Clone 3 of Donor R7Z in Table 3 (TCR, V domains shown)
V domain 1: AQSVAQPEDQVNVAEGNPLTVKCTYSVSGNPYLFWYVQYPNRGLQFLLKYITGDNLVKGSYGFEAEFNKSQTSFHLKKPSALVSDSALYFCAVREASGANNLFFGTGTRLTVIP
V domain 2: SQTIHQWPATLVQPVGSPLSLECTVEGTSNPNLYWYRQAAGRGLQLLFYSVGIGQISSEVPQNLSASRPQDRQFILSSKKLLLSDSGFYLCAWSPQGNSPLHFGNGTRLTVTE
notes: also called Donor R7Z Clone 3
B8: TCR Clone 1 of Donor T3V in Table 3 (TCR, V domains shown)
V domain 1: DQQVKQNSPSLSVQEGRISILNCDYTNSMFDYFLWYKKYPAEGPTFLISISSIKDKNEDGRFTVFLNKSAKHLSLHIVPSQPGDSAVYFCAASAGGQNFVFGPGTRLSVLP
V domain 2: DAGITQSPRHKVTETGTPVTLRCHQTENHRYMYWYRQDPGHGLRLIHYSYGVKDTDKGEVSDGYSVSRSKTEDFLLTLESATSSQTSVYFCAIRRGGSSYNEQFFGPGTRLTVLE
notes: also called Donor T3V Clone 1
B9: TCR Clone 2 of Donor B5F in Table 3 (TCR, V domains shown)
V domain 1: GESVGLHLPTLSVQEGDNSIINCAYSNSASDYFIWYKQESGKGPQFIIDIRSNMDKRQGQRVTVLLNKTVKHLSLQIAATQPGDSAVYFCAETPGGYQKVTFGTGTKLQVIP
V domain 2: EAQVTQNPRYLITVTGKKLTVTCSQNMNHEYMSWYRQDPGLGLRQIYYSMNVEVTDKGDVPEGYKVSRKEKRNFPLILESPSPNQTSLYFCASSLWTSNSPLHFGNGTRLTVTE
notes: also called Donor B5F Clone 2
B10: TCR Clone 3 of Donor T3V in Table 3 (TCR, V domains shown)
V domain 1: AGQSLEQPSEVTAVEGAIVQINCTYQTSGFYGLSWYQQHDGGAPTFLSYNALDGLEETGRFSSFLSRSDSYGYLLLQELQMKDSASYFCAVPRRNNNARLMFGDGTQLVVKP
V domain 2: EAQVTQNPRYLITVTGKKLTVTCSQNMNHEYMSWYRQDPGLGLRQIYYSMNVEVTDKGDVPEGYKVSRKEKRNFPLILESPSPNQTSLYFCASSLNTGMNTEAFFGQGTRLTVVE
notes: also called Donor T3V Clone 3
B11: TCR Clone 1 of Donor P6G in Table 3 (TCR, V domains shown)
V domain 1: KQEVTQIPAALSVPEGENLVLNCSFTDSAIYNLQWFRQDPGKGLTSLLLIQSSQREQTSGRLNASLDKSSGRSTLYIAASQPGDSATYLCAVGGDDSGAGSYQLTFGKGTKLSVIP
V domain 2: DSGVTQTPKHLITATGQRVTLRCSPRSGDLSVYWYQQSLDQGLQFLIQYYNGEERAKGNILERFSAQQFPDLHSELNLSSLELGDSALYFCASSRPEGIYNEQFFGPGTRLTVLE
notes: also called Donor P6G Clone 1
B12: TCR Clone 3 of Donor Y6W in Table 5 (TCR, V domains shown)
V domain 1: GENVEQHPSTLSVQEGDSAVIKCTYSDSASNYFPWYKQELGKGPQLIIDIRSNVGEKKDQRIAVTLNKTAKHFSLHITETQPEDSAVYFCAASEFQFYFGTGTSLTVIP
V domain 2: DSGVTQTPKHLITATGQRVTLRCSPRSGDLSVYWYQQSLDQGLQFLIQYYNGEERAKGNILERFSAQQFPDLHSELNLSSLELGDSALYFCASSPGQRANTGELFFGEGSRLTVLE
notes: also called Donor Y6W Clone 3
B13: TCR Clone 10 of Donor Y6W in Table 5 (TCR, V domains shown)
V domain 1: RKEVEQDPGPFNVPEGATVAFNCTYSNSASQSFFWYRQDCRKEPKLLMSVYSSGNEDGRFTAQLNRASQYISLLIRDSKLSDSATYLCVLSGAGSYQLTFGKGTKLSVIP
V domain 2: NAGVTQTPKFQVLKTGQSMTLQCAQDMNHNSMYWYRQDPGMGLRLIYYSASEGTTDKGEVPNGYNVSRLNKREFSLRLESAAPSQTSVYFCASSEWREETQYFGPGTRLLVLE
notes: also called Donor Y6W Clone 10
B14: TCR Clone 15 of Donor Y6W in Table 5 (TCR, V domains shown)
V domain 1: QKEVEQNSGPLSVPEGAIASLNCTYSDRGSQSFFWYRQYSGKSPELIMFIYSNGDKEDGRFTAQLNKASQYVSLLIRDSQPSDSATYLCAVKVGTGFQKLVFGTGTRLLVSP
V domain 2: DTGVSQNPRHKITKRGQNVTFRCDPISEHNRLYWYRQTLGQGPEFLTYFQNEAQLEKSRLLSDRFSAERPKGSFSTLEIQRTEQGDSAMYLCASSLVGQGNTEAFFGQGTRLTVVE
notes: also called Donor Y6W Clone 15
B15: TCR Clone 2 of Donor Y6W in Table 5 (TCR, V domains shown)
V domain 1: QKEVEQNSGPLSVPEGAIASLNCTYSDRGSQSFFWYRQYSGKSPELIMFIYSNGDKEDGRFTAQLNKASQYVSLLIRDSQPSDSATYLCAVNVGNTGFQKLVFGTGTRLLVSP
V domain 2: SQTIHQWPATLVQPVGSPLSLECTVEGTSNPNLYWYRQAAGRGLQLLFYSVGIGQISSEVPQNLSASRPQDRQFILSSKKLLLSDSGFYLCACQWQGLGGELFFGEGSRLTVLE
notes: also called Donor Y6W Clone 2
B16: TCR Clone 1 of Donor Y6W in Table 5 (TCR, V domains shown)
V domain 1: SLAKTTQPISMDSYEGQEVNITCSHNNIATNDYITWYQQFPSQGPRFIIQGYKTKVTNEVASLFIPADRKSSTLSLPRVSLSDTAVYYCLVVPFGGYNKLIFGAGTRLAVHP
V domain 2: SAVISQKPSRDICQRGTSLTIQCQVDSQVTMMFWYRQQPGQSLTLIATANQGSEATYESGFVIDKFPISRPNLTFSTLTVSNMSPEDSSIYLCSVGEGTSGYESYNEQFFGPGTRLTVLE
notes: also called Donor Y6W Clone 1
B17: TCR Clone 13 of Donor Y6W in Table 5 (TCR, V domains shown)
V domain 1: AQSVTQPDIHITVSEGASLELRCNYSYGATPYLFWYVQSPGQGLQLLLKYFSGDTLVQGIKGFEAEFKRSQSSFNLRKPSVHWSDAAEYFCAAPGVGSNSGYALNFGKGTSLLVTP
V domain 2: DSGVTQTPKHLITATGQRVTLRCSPRSGDLSVYWYQQSLDQGLQFLIQYYNGEERAKGNILERFSAQQFPDLHSELNLSSLELGDSALYFCASSPSWAANSPLHFGNGTRLTVTE
notes: also called Donor Y6W Clone 13
B18: TCR Clone 1 of Donor B33 in Table 5 (TCR, V domains shown)
V domain 1: GQQVMQIPQYQHVQEGEDFTTYCNSSTTLSNIQWYKQRPGGHPVFLIQLVKSGEVKKQKRLTFQFGEAKKNSSLHITATQTTDVGTYFCAGPGTGAGSYQLTFGKGTKLSVIP
V domain 2: DVKVTQSSRYLVKRTGEKVFLECVQDMDHENMFWYRQDPGLGLRLIYFSYDVKMKEKGDIPEGYSVSREKKERFSLILESASTNQTSMYLCASIKSSGYNEQFFGPGTRLTVLE
notes: also called Donor B33 Clone 1
B19: TCR Clone 1 of Donor B5F in Table 5 (TCR, V domains shown)
V domain 1: B18 V domain 1 with G93Y, T94S
V domain 2: B18 V domain 2 with K95L
notes: also called Donor B5F Clone 1
B20: TCR Clone 6 of Donor Y6W in Table 5 (TCR, V domains shown)
V domain 1: QKEVEQNSGPLSVPEGAIASLNCTYSDRGSQSFFWYRQYSGKSPELIMFIYSNGDKEDGRFTAQLNKASQYVSLLIRDSQPSDSATYLCAAEPFSSYKLIFGSGTRLLVRP
V domain 2: GAGVSQSPSNKVTEKGKDVELRCDPISGHTALYWYRQSLGQGLEFLIYFQGNSAPDKSGLPSDRFSAERTGGSVSTLTIQRTQQEDSAVYLCASSFIGGTGLNEQFFGPGTRLTVLE
notes: also called Donor Y6W Clone 6
B21: TCR Clone 14 of Donor Y6W in Table 5 (TCR, V domains shown)
V domain 1: TGQNIDQPTEMTATEGAIVQINCTYQTSGFNGLFWYQQHAGEAPTFLSYNVLDGLEEKGRFSSFLSRSKGYSYLLLKELQMKDSASYLCAGEDQTGANNLFFGTGTRLTVIP
V domain 2: DVKVTQSSRYLVKRTGEKVFLECVQDMDHENMFWYRQDPGLGLRLIYFSYDVKMKEKGDIPEGYSVSREKKERFSLILESASTNQTSMYLCASGTLSYNEQFFGPGTRLTVLE
notes: also called Donor Y6W Clone 14
B22: TCR Clone 8 of Donor Y6W in Table 5 (TCR, V domains shown)
V domain 1: KTTQPPSMDCAEGRAANLPCNHSTISGNEYVYWYRQIHSQGPQYIIHGLKNNETNEMASLIITEDRKSSTLILPHATLRDTAVYYCIVRVAGGTSYGKLTFGQGTILTVHP
V domain 2: SQTIHQWPATLVQPVGSPLSLECTVEGTSNPNLYWYRQAAGRGLQLLFYSVGIGQISSEVPQNLSASRPQDRQFILSSKKLLLSDSGFYLCAWSSAPDRGHRQPQHFGDGTRLSILE
notes: also called Donor Y6W Clone 8

Positions count from the first letter of the chain named. In names and notes the source's numbering stands.

One assay concerns the target HLA-A*11:01-… (human; Epstein Barr Virus). In words: HLA-peptide multimer staining and single-cell sorting of CD8+ T cells, paired TCR sequencing.
Description: (§1) T cell lines were labelled with an allophycocyanin (APC)-conjugated HLA-peptide multimer (ProImmune Ltd., Oxford, UK) by incubation for 30 minutes at room temperature. Cells were then washed and incubated with Cy5.5-PerCP conjugated anti-human CD8 mAb (BioLegend, San Diego, Calif.) for 30 minutes at 4° C. Cells were washed, analyzed and sorted as single cells into 96-well PCR plates (Eppendorf, Hamburg, Germany) using the FACS Aria III flow cytometer (BD Biosciences).
As for B1, the binding result was “binds”.

For B2, the binding result was “binds”.

B3: the binding result is on record as “binds”.

Consider B4, for which the binding result is on record as “binds”.

With B5, the binding result is given as “binds”.

For the molecule B6, the binding result is “binds”.

In the case of B7, the binding result was “binds”.

Take B8: the binding result is recorded as “binds”.

Take B9: the binding result is listed as “binds”.

Consider B10, for which the binding result is on record as “binds”.

Turning to B11, the binding result is on record as “binds”.

A further assay concerns the target HLA-A*24:02-… (human; Epstein Barr Virus). The assay is described as above.
Description: as §1
On to B12, for which the binding result is on record as “binds”.

Take B13: the binding result is given as “binds”.

As to B14, the binding result is reported as “binds”.

As to B15, the binding result is “binds”.

Take B16: the binding result is reported as “binds”.

B17: the binding result is “binds”.

As for B18, the binding result is “binds”.

On to B19, for which the binding result was “binds”.

Consider B20, for which the binding result is “binds”.

Regarding B21, the binding result was “binds”.

Turning to B22, the binding result is “binds”.
